{
  "source": "patent US6353153B1",
  "about": "“Enhanced transport with a plastid membrane transport protein” (priority 1996, dated 2002)",
  "molecules": {"B1": {"name": "Bce44B: plastid transport protein, Brassica napus 44 kDa chloroplast envelope protein, member of Com44/Cim44, encoded by SEQ ID NO:1 (protein)", "chain": "MQTAMKTMMNQMNTQNSQFNNPGFPTGAGAGAGSPFPFPFPPQTSPTTSPFQPQSQSSGATVDLTATKVDRPPVSKPQPTPIPPTKSIEVYKPSVVVEENKAMKEEKNYAFEDVSPEETTKESPFSNYEEVSETSAPKETRLFDDVLQNGAAPANGATASDVFQSLGAGKGWAGGSVEVLEKMIEYPTFQKMLYPHLPEEMRNPESFKWVRKNPQYRQQLQDMLNNMSESGEWDKRMTETLKNFDPNSPEVKQGFDQLGLTPEEVISKIMENPDVSMAFQNPRVEAALMDCSENPMNIMKYQNDKEVMDVFNKISQLFPGLTG"}},
  "key": {"[1]": {"tested_on": "β-lactamase transport in E. coli JM109(DE3)", "assay": "Ampicillin resistance, ability to form colonies on LB-agar plates with increasing ampicillin", "type": "cell-based, Escherichia coli", "conditions": "solid agar media with increasing ampicillin", "description": "The enhancement of protein translocation was further investigated using the plasmid-borne multicopy gene, β-lactamase. See Example 14. β-lactamase protein levels are much higher than induced alkaline phosphatase making this system a more sensitive monitor of protein translocation without the complications posed by low phosphate induction. Like alkaline phosphatase, β-lactamase is translocated into the periplasm, where it detoxifies the antibiotic ampicillin, thereby conferring ampicillin-resistance to cells. Because the level of antibiotic resistance conferred also reflects the level of protein transport activity, the level of ampicillin resistance was determined for Bce44B expressing cells and compared to that of Oee1-Dhfr-expressing cells on solid agar media containing increasing concentrations of ampicillin. […] The Bce44B-expressing cells formed colonies with ampicillin concentrations as high as 3 mg/ml, whereas Oee1-Dhfr-expressing cells could not form colonies beyond 1 mg/ml.\nChanges to β-lactamase transport were monitored by two different approaches: 1) the ability to form colonies on solid LB-agar plates containing increasing concentrations of ampicillin (50 μg/ml to 3.0 mg/ml); and 2) the level of transported and processed β-lactamase detected by immunoblotting total protein samples of cells grown in LB-broth containing increasing ampicillin concentrations. […]"}, "Arabidopsis thaliana": {"tested_on": "Arabidopsis thaliana", "assay": "Seed size of transgenic plants carrying the CaMV-Bce44B-NOS transgene", "type": "in vivo", "conditions": "primary generation of transgenic plants", "description": "Transgenic plants (Brassica napus, Arabidopsis thaliana and Lycopersicon esculentum) with altered plastid protein transport capacity were produced by introducing a transgene construct consisting of DNA encoding the Bce44B protein and a 5′ untranslated region immediately upstream of the Bce44B coding sequence. Expression of the construct was obtained by linking the cauliflower mosaic virus 35S promoter (Odell, J. T. et al. (1985) Nature 313:810) upstream. Transcriptional termination was facilitated by the gene encoding nopaline synthase (NOS) found in Agrobacterium Ti plasmids or their derivatives such as pBI101 (Clontech). Construction of the 35S CAMV-Bce44B-NOS transgene construct is diagrammed in FIG. 6.\nFor the seed transformation protocol (Feldmann, K., (1992) In: Methods in Arabidopsis Research (eds. C. Koncz, N. H. Chua, J. Schell) pp 274-289), 2.4 grams of Arabidopsis thaliana (ecotype Wassilewskija) seeds were surface sterilized for 8 minutes in 5.25% (wlv) sodium hypochlorite containing 0.15% (v/v) Tween 20, then rinsed 6-7 times with sterile water. The seeds were apportioned among 40 125 ml flasks containing 40 ml cocultivation medium (CCM) (1×MS salts, 40 g/l sucrose, 10 mg/l thiamine, […] pyridoxine, […] nicotinic acid and 100 mg/l inositol, pH 6.0 with KOH). […]"}},
  "data": [
    {"molecule": "B1", "values": [
      {"measurement": "ampicillin concentration up to which expressing cells form colonies", "setting": "[1]", "value": "≤ 3", "unit": "mg/mL"},
      {"measurement": "seed size relative to wildtype counterparts or pEND4K-only control plants", "setting": "Arabidopsis thaliana", "value": "approximately twice"}
    ]}
  ]
}
